± gives the standard deviation.
Assay: protein stability index of a GFP-peptide fusion (GPS, HEK-293T) (PSI 1-6); higher = more stable
Details: c terminus: a fixed tail appended
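Further: 24-mer peptide tiles fused after GFP, lentivirally expressed, FACS-sorted into six equal bins by GFP/DsRed ratio, decoded by Illumina sequencing, PSI is the read-weighted mean bin number.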

Sequence: SVDDIESETGSTGALETRSLKDHK [C2CD2L]
- protein stability index (treatment: DMSO): 5.52 ± 0.3
- protein stability index (treatment: MLN4924 1 uM, 8 h): 5.43 ± 0.27

Sequence: FKLFFNGRPGIVAWTLINLSFAAK [DHCR7]
- protein stability index (treatment: DMSO): 3.03 ± 0.28
- protein stability index (treatment: MLN4924 1 uM, 8 h): 2.46 ± 0.31

Sequence: LPAGPGEEWERRPQEPRPPKRATK [CPXM2]
- protein stability index (treatment: DMSO): 5.04 ± 0.53
- protein stability index (treatment: MLN4924 1 uM, 8 h): 5.44 ± 0.28

Sequence: LTLSAGDLGGSIYANLALSGLIEI [SLC22A15]
- protein stability index (treatment: DMSO): 2.77 ± 0.91
- protein stability index (treatment: MLN4924 1 uM, 8 h): 3.43 ± 0.74

Sequence: VQKSIYSEFLKRFVEATRKWKVGI [ALDH8A1]
- protein stability index (treatment: DMSO): 2.75 ± 0.91
- protein stability index (treatment: MLN4924 1 uM, 8 h): 2.83 ± 0.54

Sequence: KSKAYTVVGTPCYISPELCEGKPY [NEK8]
- protein stability index (treatment: DMSO): 2.83 ± 0.084
- protein stability index (treatment: MLN4924 1 uM, 8 h): 3.03 ± 0.27

Sequence: CYVSRRLSQLSSHDPLWRRHCKKY [FBXO3]
- protein stability index (treatment: DMSO): 2.32 ± 0.12
- protein stability index (treatment: MLN4924 1 uM, 8 h): 2.4 ± 0.23

Sequence: MEVQHFRTIYHMFIAGLCVFIIST [SOAT2]
- protein stability index (treatment: DMSO): 2.95 ± 0.27
- protein stability index (treatment: MLN4924 1 uM, 8 h): 3.18 ± 0.52

Sequence: VATNSAGTRYSAPANLYVRELREV [PTPRD]
- protein stability index (treatment: DMSO): 3.05 ± 0.32
- protein stability index (treatment: MLN4924 1 uM, 8 h): 3.45 ± 0.37

Sequence: LQKVLLMLVDGIDPNFKMEHQNKR [EHMT1]
- protein stability index (treatment: DMSO): 2.62 ± 0.73
- protein stability index (treatment: MLN4924 1 uM, 8 h): 2.38 ± 0.33

Sequence: RQERVSLYPFQIHSIALSTFASLI [CDS1]
- protein stability index (treatment: DMSO): 3.04 ± 0.61
- protein stability index (treatment: MLN4924 1 uM, 8 h): 2.92 ± 0.49

Sequence: QQKLVIDTVTEVTARMEMLIEELY [CBY2]
- protein stability index (treatment: DMSO): 2.55 ± 0.26
- protein stability index (treatment: MLN4924 1 uM, 8 h): 2.7 ± 0.42

Sequence: YVLNLLYETKKHLVQLPNINRVST [PPEF2]
- protein stability index (treatment: DMSO): 2.49 ± 0.68
- protein stability index (treatment: MLN4924 1 uM, 8 h): 2.59 ± 0.39

Sequence: KAGFTASPFTNLLNGSSQPTTRNY [CDC14A]
- protein stability index (treatment: DMSO): 3.38 ± 0.19
- protein stability index (treatment: MLN4924 1 uM, 8 h): 3.39 ± 0.18

Sequence: TTSEEAVGGATLAQTTSEAAMEGA [HDAC6]
- protein stability index (treatment: DMSO): 5.59 ± 0.34
- protein stability index (treatment: MLN4924 1 uM, 8 h): 5.43 ± 0.31

Sequence: LQSAAGKDAAKQIAWIKDKLLHIY [PDS5B]
- protein stability index (treatment: DMSO): 2.59 ± 0.39
- protein stability index (treatment: MLN4924 1 uM, 8 h): 3.09 ± 0.61

Sequence: VILEVSLEGSHDTANCEACTLGIC [RTP4]
- protein stability index (treatment: DMSO): 3.86 ± 0.13
- protein stability index (treatment: MLN4924 1 uM, 8 h): 3.78 ± 0.28

Sequence: NNWYYISPRLTFQCLEDLVNHYSE [SLA]
- protein stability index (treatment: DMSO): 2.44 ± 0.35
- protein stability index (treatment: MLN4924 1 uM, 8 h): 2.23 ± 0.38

Sequence: GFRYSERYDPEPKSKWDEEWDKNK [CLINT1]
- protein stability index (treatment: DMSO): 3.73 ± 0.24
- protein stability index (treatment: MLN4924 1 uM, 8 h): 3.78 ± 0.29

Sequence: EGAFGEHGSQGTYSNTKENGINGE [MAP2]
- protein stability index (treatment: DMSO): 5.19 ± 0.31
- protein stability index (treatment: MLN4924 1 uM, 8 h): 5.25 ± 0.17

Sequence: TNLTWDQVITLDQVLDEVIPIHGK [TENT5D]
- protein stability index (treatment: DMSO): 2.47 ± 0.16
- protein stability index (treatment: MLN4924 1 uM, 8 h): 2.61 ± 0.3

Sequence: CLGSLASKLSRKYVKAKKSIDKDE [FAN1]
- protein stability index (treatment: DMSO): 2.7 ± 0.16
- protein stability index (treatment: MLN4924 1 uM, 8 h): 2.94 ± 0.4

Sequence: MGEDEDGLSEKNCQNKCRIALVEN [PLD5]
- protein stability index (treatment: DMSO): 5.14 ± 0.51
- protein stability index (treatment: MLN4924 1 uM, 8 h): 4.82 ± 0.11

Sequence: PPLREIILGPSSAYTQTQFHNLRN [NFE2L1]
- protein stability index (treatment: DMSO): 2.47 ± 0.15
- protein stability index (treatment: MLN4924 1 uM, 8 h): 2.65 ± 0.4

Sequence: MTEPWLALGTSWTLPLQDRELGPE [CABP4]
- protein stability index (treatment: DMSO): 3.54 ± 0.39
- protein stability index (treatment: MLN4924 1 uM, 8 h): 4.16 ± 0.2

Sequence: LEPEAAEEALENGPKESLPVIAAP [ACBD3]
- protein stability index (treatment: DMSO): 5.67 ± 0.25
- protein stability index (treatment: MLN4924 1 uM, 8 h): 5.64 ± 0.24

Sequence: DDAVAGDFALINKLDIQCDLKTLS [ATE1]
- protein stability index (treatment: DMSO): 4.18 ± 0.34
- protein stability index (treatment: MLN4924 1 uM, 8 h): 4 ± 0.17

Sequence: AYFPYFKKHNVTAVVRLNKKIYEA [CDC14A]
- protein stability index (treatment: DMSO): 2.34 ± 0.33
- protein stability index (treatment: MLN4924 1 uM, 8 h): 2.08 ± 0.16

Sequence: DDSGKDKKKKTKKIKEKYIDQEEL [HSP90AB1]
- protein stability index (treatment: DMSO): 5.39 ± 0.29
- protein stability index (treatment: MLN4924 1 uM, 8 h): 5.37 ± 0.32

Sequence: QMNLLQKYSLLKLTALLEKYTPSN [DLC1]
- protein stability index (treatment: DMSO): 2.48 ± 0.55
- protein stability index (treatment: MLN4924 1 uM, 8 h): 2.41 ± 0.49

Sequence: DDVRLLCHLTPSIYTEFPDETLRS [INTS3]
- protein stability index (treatment: DMSO): 3.41 ± 0.2
- protein stability index (treatment: MLN4924 1 uM, 8 h): 3.49 ± 0.54

Sequence: EHPEALSCLLLQLRREKPSEEMVK [INTS3]
- protein stability index (treatment: DMSO): 3.38 ± 0.43
- protein stability index (treatment: MLN4924 1 uM, 8 h): 3.57 ± 0.26

Sequence: VLSESSGPSNTSHSSSRDSHLSNG [C2CD2L]
- protein stability index (treatment: DMSO): 4.96 ± 0.28
- protein stability index (treatment: MLN4924 1 uM, 8 h): 5 ± 0.13

Sequence: GKELAGTMDGEGTLFQTESPQSGS [PBXIP1]
- protein stability index (treatment: DMSO): 5.42 ± 0.43
- protein stability index (treatment: MLN4924 1 uM, 8 h): 5.38 ± 0.17

Sequence: SNSCPAELPNIKREISETEAKALL [TFE3]
- protein stability index (treatment: DMSO): 5.1 ± 0.098
- protein stability index (treatment: MLN4924 1 uM, 8 h): 5.18 ± 0.12

Sequence: FLDILRRADKNDDGKLSFEEFKAY [NECAB1]
- protein stability index (treatment: DMSO): 2.83 ± 0.23
- protein stability index (treatment: MLN4924 1 uM, 8 h): 2.93 ± 0.34

Sequence: GTLLFYIGGHLVRDNDHPDHSSRE [FUT8]
- protein stability index (treatment: DMSO): 2.3 ± 0.59
- protein stability index (treatment: MLN4924 1 uM, 8 h): 2.55 ± 0.58

Sequence: RQLVEADINGLRRILDELTLCKAD [KRT36]
- protein stability index (treatment: DMSO): 3.2 ± 0.24
- protein stability index (treatment: MLN4924 1 uM, 8 h): 3.32 ± 0.26

Sequence: SRLTPGGKAAQAGVAVGDWVLSID [PDLIM7]
- protein stability index (treatment: DMSO): 2.63 ± 0.29
- protein stability index (treatment: MLN4924 1 uM, 8 h): 3.02 ± 0.61

Sequence: VLEAKMTMLTVIEQPVPPTPATPE [EMID1]
- protein stability index (treatment: DMSO): 3.72 ± 0.38
- protein stability index (treatment: MLN4924 1 uM, 8 h): 3.89 ± 0.24

Sequence: FEFLYNALEFWRQEELTRINQSFT [IQUB]
- protein stability index (treatment: DMSO): 2.13 ± 0.54
- protein stability index (treatment: MLN4924 1 uM, 8 h): 2.45 ± 0.74

Sequence: SNKYGFGYQLSDHTVGVLFNNGAH [PLK2]
- protein stability index (treatment: DMSO): 2.61 ± 0.41
- protein stability index (treatment: MLN4924 1 uM, 8 h): 2.58 ± 0.5

Sequence: FFLFIGVILFSSAVYFAEAEEAES [KCNA1]
- protein stability index (treatment: DMSO): 2.81 ± 0.18
- protein stability index (treatment: MLN4924 1 uM, 8 h): 2.78 ± 0.34

Sequence: QALQKEKETLAVNYEKEEEFLTNE [CCDC6]
- protein stability index (treatment: DMSO): 5.39 ± 0.15
- protein stability index (treatment: MLN4924 1 uM, 8 h): 5.3 ± 0.24

Source: the supplement of paper PMC10567573
